The nature of the data set: label from the status in PepcDB records.
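Note: failed if final PepcDB status was selected cloned or expressed and not failed if soluble or beyond.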

Consider “IHFTTEVITSRIEPANRYVAEKLRITPGQDILYLERLRSIGDEKAMLIENRINIELCPGIVEIDFNQHNLFPTIESLSKRKIRYSESRYAARLIGNERGHFLDISEDAPVLHLEQLVFFSRELPVEFGNVWLKG”, for which the protein production entry is recorded as “failed”.
The entry for “IIAKKTNDIQQDIILHSEFANRHGLIAGATGTGKTVTLKVMAESFSRIGVPVFLADAKGDVSSIAKAGSDNPKFDARIKSLGIESIPFAASPTIFWDLFGEQGHPIRTTISEIGPLLLAQMLNLNDTQEGVLSALFRIADDQGLLLIDFKDLKAMLSYVSENAADLKAEYGNLSPASIGAIQRNLLALGDQGGEQFFGEPSLNILDFIQTDSNGHGYINVLAADKLMNTPKLYATFLLWMLSELFEQLPEVGDLDKPKLVFFFDEAHLLFDNASPALQQKIEQVVRLIRSKGVGIYFITQNPLDLPESVLGQLGNRVQHALRAFTPKDQKAVKTAADTFRANPEFKVDQAITELAVGEALISCLDEQGTPQIVERGWVMPPYSSFSPLSPQERQAFMAQSIVAGVYENAVDRDSAYEMLQRKVNESTAQQQAQAEAKQQEANAKQQAKEQERLAREQQKAEEKAQRDREKLTQDVIGTFAKSAARTLGGPTGQKLVRGLLGSLFGKR” is “failed”; for “ILARTKIFPWFFDLKRNKMLIDAHWFSYLGIPAGDCEITIEKFFSRVHPNERDMLADALQKQLSEKEIPDSFSYRLQRGDGSWEWFSEQSMYLSKTNDGSPYRIVGVCHSIQEHKNT” it is “failed”.
For “ILWSQFLKFKEMELPAKEADKNRSKGIYQSLEGAVQAGQLKVPPGYHPLDVEKEWGKLHVAILEREKQLRSEFERLECLQRIVTKLQMEAGLCEEQLHQADALLQSDIRLLAAGKVPQRAGEVERDLDKADSMIRLLFNDVQTLKDGRHPQGEQMYRRVYRLHERLVAIRTEYNLRLK” the value was “failed”.
Regarding “IRQARDLLVASMRNPPSLELLAQKTGLNVRKLNLGFRRMYRATAYGFLQEYRLEQAYKLISSGEMSVSQAAYHVGYGAAHFATVFRKRFGVSPSRLR”, the protein production result was “failed”.
The entry for “ISPGAAGGAEDGFFVPPTKGTSPTQIWCNNSQLPVDHILAGSFETAMRLLHDQVGVIQFGPYKQLFLQTYARGRTTYQALPCLPSMYGYPNRNWKDAGLKNGVPAVGLKLNDLIQRLQLCYQLTTVGKFEEAVEKFRSILLSVPLLVVDNKQEIAEAQQLITICREYIVGLSVETERKKLPKETLEQQKRICEMAAYFTHSNLQPVHMILVLRTALNLFFKLKNFKTAATFARRLLELGPKPEVAQQTRKILSACEKNPTDAYQLNYDMHNPFDICAASYRPIYRGKPVEKCPLSGACYSPEFKGQICRVTTVTEIGKDVIGLRISPLQFR” is “failed”; for “ISSDEALKLIKEQPQLFDEYHDGFRSQVQAWPENPVDVFVDQIRYRCMKPVNAPGGLPGLKDSKEIVIADMGCGEAQLALEINNFFKNYNKKAKKYLKRRHKVHSFDLKKANERITVADIRNVPLPDESCTIVVFCLALMGTNFLDFIKEAYRILAPRGELWIAEIKSRFSDGKGNEFVDALKLMGFFHKKTFDENKMFTRFEFFKPPAEIIEERRQ” it is “failed”; for “IVAGFTSIPSQGDNMPAYHARPKQSDGPLPVVIVVQEIFGVHEHIRDICRRLALEGYLAIAPELYFREGDPNDFADIPTLLSGLVAKVPDSQVLADLDHVASWASRNGGDVHRLMITGFCWGGRITWLYAAHNPQLKAAVAWYGKLTGDKSLNSPKQPVDIATDLNAPVLGLYGGQDNSIPQESVETMRQALRAANAKAEIIVYPDAGHAFNADYRPSYHAESAKDGWQRMLEWFTQY” it is “failed”.
For “IVISAFEQTLWRSEPETPLKVYQLLSGAHYRTSPLDLRRMMDAPGQHFLQAAGENEIAGALCLVDEGGLSQELSQAVWAGYRRPRGNLVAQSLAAHGSNPLAATLRGRRVSRIAVHPARQREGTGRQLIAGALQYIHDLDYLSVSFGYTEELWRFWQRCGFVLVRMGNHREASSGCYTAMALLPM” the value was “failed”; for “KDNTKVIAHRGYWKTEGSAQNSIRSLERASEIGAYGSEFDVHLTADNVLVVYHDNDIQGKHIQSCTYDELKDLQLSNGEKLPTLEQYLKRAKKLKNIRLIFELKSHDTPERNRDAARLSVQMVKRMKLAKRTDYISFNMDACKEFIRLCPKSEVSYLNGELSPMELKELGFTGLDYHYKVLQSHPDWVKDCKVLGMTSNVWTVDDPKLMEEMIDMGVDFITTDLPEETQKILHSRAQ”, “not failed”; for “KDPLLNSLIYVSRYYGLANSPEALVNGLPLSDGKLTPFLLPRAAERAGLVAKENRAELEKISSLILPAILVLKGGDSCVLNSINMETREAEVTTLESGMVPISIPLEDLLEQYTGRYFLVKKQFR”, “failed”.
The entry for “KERERLEEKLEDANERIAELVKLEERQRIARDLHDTLGQKLSLIGLKSDLARKLIYKDPEQAARELKSVQQTARTSLNEVRKIVSSMKGIRLKDELINIKQILEAADIMFIYEEEKWPENISLLNENILSMCLKEAVTNVVKHSQAKTCRVDIQQLWKEVVITVSDDGTFKGEENSFSKGHGLLGMRERLEFANGSLHIDTENGTKLTMAIPNNSK” is “not failed”; for “KIMIAALDYDPGDGQMGGQGKGRLALRAGDVVMVYGPMDDQGFYYGELGGHRGLVPAHLLDHMSLHGH” it is “not failed”; for “KMMVLYNETSGSSESKEIAERFKKAAEARGEAVILQPSNPDIDPEEMRKNAKENQVGVLVVIGGDGTIHHAVQNFKDTIRDYQIGIIPGGTVNNFARVLSIPLKEEDAFETILAGQTTPVDFGMVNQD” it is “not failed”.
For “KNRLGTKALNFTYTLDSGVKGTLYQFPAEYTLLFINNPGCHACAEMIEGLKASPVINGFTAAKKLKVLSIYPDEELDEWKKHRNDFAKEWTNGYDKELVIKNKNLYDLRAIPTLYLLDKNKTVLLKDATLQKVEQYLAE”, the protein production result is given as “not failed”.
Turning to “KNVNNAEEYWDVIDLRVYPGKNGYFELYDDDGITYEYEKGKYYIIPITWDEDKQELTIGKKRGELEMSKKIIKIIWVEKGKGIEHTKPDVEIEYNGKETITVKRG”, the protein production result is listed as “failed”.
The entry for “KPKDIKYVVEESKFKDLREILEFMLKDAVQKLDMFLDMLNYSKPKVDVGDEVIEIKKDNVIEALKLFKDEYEVSKKHIPVPVYTYLIKRNILFLNPIEGILKPQSYLVWNAIKRLL” is “failed”; for “KPSQEGGKGGSEKPKRPVSAMFIFSEEKRRQLQEERPELSESELTRLLARMWNDLSEKKKAKYKAREAALKAQSERK” it is “not failed”; for “KREHFRDDYLYRFYQYGDTHSKIPSNLYKVLARKLDMISASENINDLRSPPANHLELLEPKENKIYSIRVNKQYCLIFKYENNEVNNLYLDPH” it is “failed”.
For “KSHSRTLTPTPDGKTMLRPVLRLTSAMTREVATDHKAFYVLFTWDQEAQIYELVAQTVSERKNWCALITETAGSLKV” the value was “failed”; for “KSNEIVELSVQKWINELRDANNKLQQEVSELKKKEVNLESSLSLLSSTLESTAIGIVAINFEGDILNYNQKFAEMWKLPQQLILSKKCPRCKAFFEGQMKDPETFNRLIWAVSSTSNIESYDVLELKDGRVFAHYSQPQWLGQ”, “failed”; for “KSTVEKSTVGQKVAIVREDTGTIAELAEKALGNMVDIVYAGSDLKEAEEAVKKEKAPAIIVIPKGFSQSLESGEKARLEIVWYLRGTGLSEAVSTGTISSLIESLKVQLASFLLNDPKKAQLLFDPLEIVQHTYLRGSLFKNHSPEAIMNVFYSQN”, “not failed”.
Consider “KTGQLLPKSPAARYEAIQWLMFQMGGVGPMFGQLGFFHKFAGKDYEDKRPRDRYVAESRRLLQVLEGRMAGRAWIMGDEYTIADIAIWPWVRNLVGFYGAGELVGFDDFPNIQRVVQAFAERPAVARGLAIPARD”, for which the protein production entry is listed as “failed”.
The entry for “KTIFVIVPTNEEQVAFLEALAKQDELNFDWQNPPTEPGQPVVILIPSDMVEWFLEMLKAKGIPFTVYVEEGGSENLYFQ” is “not failed”; for “KVGLIIISHGRIATETVNVVKELLGVKFPVAIDMPLDEKPINIYNKAVELSKIIDQGKGILFLVDIGSLTNIGQIVNKRTNISTKTIDRVDLLMALEATRKVSMGEEELDEIFFSLLKDRMGYNYELEKHIDKS” it is “failed”.
“KYYWNNVNYDPATLFSASCLLFYVLDAIIFEHHLSSSFELQHEGYGCLLLLRYAATPYLLTAVTKYFYEQRVPISCWYAPLAVAALLSLGLLVKRFSCAYKYKYRLNSQSPIFANIETIHTYQGSRLLLSGMWGWVRQPNYLGDIVALLALAAPMALRPAWPPVLGLSLIILLLLHRATRANARNQARYHSSWQRYSTQVRSYILPRVY”: the protein production result is recorded as “failed”.
For “LAAMSIDLGSQFIKIGLVKPGVPMDIVLNKESRRKTPNVISFKNDERFFAEAAAAMSSSHPQSSYNFLLSMIARKEGDDAFVTFQKTFPFTAFEFDEVRKTVVFPYKEEKYNVETLLAMILWNAKKVTEAYADQTVKDVVITVPIFLNQAERRAIASAAEIAGLNLLQLLNDGSAAALNYGVFRRKEITEKPTHMLIYDMGAVKTTATIVQYVLESTRKDGKDKQPTLRTVGVGFDKTLGGLEITNRLRDHLEKVFRDTVKTSKDISTNARAIGKLHKEAERVKQVLSANKDTYAQVESLFEEQNFRAKVTREELEKMIEDLEPRIAAPILDAIGMAQISTNDIDLVVLMGAGTRVPKVKEILKTILKDKEISNFLNTDEAIAMGAVYQAAHLSKSFKVLPFNVHEKILYPVFVNFLTKTEEGTMKPIRKSLFGENYPVPNRVMHFSSYSDDFKIDIQDADKNPLSTVEISGVKDAIEKEVTDE” the value was “failed”; for “LADYSTEELEKIADKFRSDTSGIRGTKDFTSPEELYDELKKEIKKYHPSDDTSLVDKAYRVAYDAHKGQARKSGEPYIIHPLCVAIILAELELDKETIAAGLLHDVLEDTIMTMDEMRAEFGDDVAHLVDGVTKLKHLHLTDSTKDPKDKNADRLEMQAENLRKMFLAMAKDIRVILIKLADRLHNMRTLKYQSKEAQQRIARETQDIYCPIAQRLGISKIKIELEDLCMKYLYPDAYYDLVEKVALRKTERDTYIQGLVNDVKKYVSDAGIKAEIYGRAKHFFSIYKKMVNQDKTIDQIYDLFAIRILVDTIPDCYAVLGIIHEKYKPIPGRFKDYIAMPKQNMYQSLHTTLIGPSGQPFEIQIRTYEMHRTAEYGIAAHWKYKETNNGNATTTTVTEEEKLSWLRQILEWQQDMSDNKEFMTLLKSDLNLFSDNVFAFTPSGDVKNLPKGSTPIDFAYSIHSAVGNKMVGAKVNGKLVPIDYVIKNGDQIEIITSQNSKGPSRDWLKVVKSTQAKNKINQWFRSELKEENIQHGKDLIAAYAKAKGINFAEINKPEYQEKIRRKYGFHDWNSCLATVGHGGLKESQIVNRMYDEYKKDHVVPVTDADVLGSIAEKQQAAAGTQPEHKSKSGIVVHGLYDVAVHFSKCCNPVPGDEIVGFVTRGRGISIHRTDCVNIINLSKIEKDRLIEAEWQDTALMDNGAEYQADLKIFCHDRPGLLVDITKIFTEKEINISGIQSKTSKQGIATIEVFFNIKGRDQIKVLVEKLRQIESVIDVERTTG”, “failed”.
The entry for “LANKQIESRIIQFDVEFPSDEVAKQLSIEKTVPVYHIIRLRKVEGEPYVIEETYMPSNVISELNEDVLHGSVYRHITETLKLTIAGSHRKIRADKSSALDREYLECAPDDPVLEVEQVAFLNTGEPFEYSFARHRYDKFVFSSVHIRK” is “failed”; for “LAQEKNYDLPEGVMVYVIEGPFFFGAVETFQSALANTHTDPKVLIIRMRWVPFIDVTGLQAMEEIILNLQKRGVRVLLSEANPLVDAKLRKMGIVQLIGEQNYYKEFSQALDVCRINDSDRKSQPPFEVAKPLASVTQ” it is “not failed”.

The values above are taken from a protein production outcome set (Wang et al. 2014).
